Reference: PMC10769881, “Plasmid-encoded toxin defence mediates mutualistic microbial interactions” (Nature Microbiology, 2023)

Columns and labels:
[1] = system: OCCCO; experiment: purified protein; assay type: biochemical, Enterococcus faecalis; conditions: NAD+ close to saturation, 37 °C, pH of assay not told, kcat printed as Vmax per enzyme molecule, closely corresponding to kcat
[2] = system: NC(=O)c1ccc[n+]([C@@H]2O[C@H](COP(=O)(O)OP(=O)(O)OC[C@H]3O[C@@H](n4cnc5c(N)ncnc54)[C@H](O)[C@@H]3O)[C@@H](O)[C@H]2O)c1; experiment: purified protein; assay type: biochemical, Enterococcus faecalis; conditions: 1,3-propanediol oxidation direction, 37 °C, 1,3-propanediol as co-substrate, its concentration and pH of assay not told, varied: cofactor

## 1,3-propanediol dehydrogenase (1,3-PD), rumen plasmid-encoded (Enterococcus faecalis)
[1]
  Km: 17 ± 6 mM
  kcat: 11 ± 1 min⁻¹
[2]
  Km: 0.25 ± 0.04 mM
